Source: US20230134571A1 (INTERNATIONAL AIDS VACCINE INITIATIVE, published 2023)

How the values were obtained:
Experiment in all cases: cell-based or functional assay
[1] = molecular target: HIV Env of isolate 6545.v4.c1 (clade AC) (HIV)
[2] = molecular target: HIV Env of isolate Q769.d22 (clade A) (HIV)
[3] = molecular target: HIV Env of isolate BJOX028000.10.3 (clade AE) (HIV)
[4] = molecular target: HIV Env of isolate Q842.d12 (clade A) (HIV)
[5] = molecular target: HIV Env of isolate 6041.v3.c23 (clade AC) (HIV)
[6] = molecular target: HIV Env of isolate 246FC1G (clade C) (HIV)
[7] = molecular target: HIV Env of isolate CNE5 (clade AE) (HIV)
[8] = molecular target: HIV Env of isolate P1981_C5_3 (clade G) (HIV)
[9] = molecular target: HIV Env of isolate T263-8 (clade AG) (HIV)
[10] = molecular target: HIV Env of isolate ZM214M.PL15 (clade C) (HIV)
[11] = molecular target: HIV Env of isolate X1254_C3 (clade G) (HIV)
[12] = molecular target: HIV Env of isolate HIV-001428-2.42 (clade C) (HIV)
[13] = molecular target: HIV Env of isolate TRJO4551.58 (clade B) (HIV)
[14] = molecular target: HIV Env of isolate CAP210.2.00.E8 (clade C) (HIV)
[15] = molecular target: HIV Env of isolate 6540.v4.c1 (clade AC) (HIV)
[16] = molecular target: HIV Env of isolate BJOX015000.11.5 (clade AE) (HIV)
[17] = molecular target: HIV Env of isolate CNE19 (clade BC) (HIV)
[18] = molecular target: HIV Env of isolate Ce2060_G9 (clade C) (HIV)
[19] = molecular target: HIV Env of isolate CNE20 (clade BC) (HIV)
[20] = molecular target: HIV Env of isolate BJOX025000.01.1 (clade AE) (HIV)
[21] = molecular target: HIV Env of isolate 191084B7-19 (clade A) (HIV)
[22] = molecular target: HIV Env of isolate Ce0393_C3 (clade C) (HIV)
[23] = molecular target: HIV Env of isolate ZM249M.PL1 (clade C) (HIV)
[24] = molecular target: HIV Env of isolate 0260.v5.c36 (clade A) (HIV)
[25] = molecular target: HIV Env of isolate REJO4541.67 (clade B) (HIV)
[26] = molecular target: HIV Env of isolate 9004SS_A3_4 (clade A) (HIV)
[27] = molecular target: HIV Env of isolate 191955_A11 (clade A) (HIV)
[28] = molecular target: HIV Env of isolate AC10.0.29 (clade B) (HIV)
[29] = molecular target: HIV Env of isolate CAAN5342.A2 (clade B) (HIV)
[30] = molecular target: HIV Env of isolate A07412M1.vrc12 (clade D) (HIV)

B1: ePGDM5 (antibody, V domains shown)
VH: QAQLVQSGPEVRKPGTSVKVSCKNPGNTLTTYDLHWVRQVPGQGLQWMGWISHEGDKKVIVERFKAKVTIDWDRSTNTAYLQLSGLTSEDTAVYYCAKGSKHRLRDYALYDEDGALNWAVDVDYLANLEFWGQGTAVTVSS
VL: DFVLTQSPLSLSVTPGESASISCKSDHSLQHGDRNNYLAWYVQKPGRSPQLLIDLASERASGVPDRFSGSGSRKDFTLKIDRVEAEDVGTYYCMQGRESPWTFGQGTKVDIK
- IC50 (µg/ml) with constrains [1]: 0.043 µg/mL
- IC80 (µg/ml) with constrains [1]: 0.17 µg/mL
- IC50 (µg/ml) with constrains [2]: 0.003 µg/mL
- IC80 (µg/ml) with constrains [2]: 0.011 µg/mL
- IC50 (µg/ml) with constrains [3]: 0.021 µg/mL
- IC80 (µg/ml) with constrains [3]: 0.086 µg/mL
- IC50 (µg/ml) with constrains [4]: > 100 µg/mL
- IC80 (µg/ml) with constrains [4]: > 100 µg/mL
- IC50 (µg/ml) with constrains [5]: 0.005 µg/mL
- IC80 (µg/ml) with constrains [5]: 0.021 µg/mL
- IC50 (µg/ml) with constrains [6]: > 100 µg/mL
- IC50 (µg/ml) with constrains [7]: 0.001 µg/mL
- IC80 (µg/ml) with constrains [7]: 0.004 µg/mL
- IC50 (µg/ml) with constrains [8]: 0.295 µg/mL
- IC50 (µg/ml) with constrains [9]: 0.019 µg/mL
- IC50 (µg/ml) with constrains [10]: > 100 µg/mL
- IC50 (µg/ml) with constrains [11]: 0.217 µg/mL
- IC50 (µg/ml) with constrains [12]: 0.003 µg/mL
- IC50 (µg/ml) with constrains [13]: > 100 µg/mL
- IC50 (µg/ml) with constrains [14]: 0.057 µg/mL
- IC50 (µg/ml) with constrains [15]: 0.012 µg/mL
- IC80 (µg/ml) with constrains [15]: 0.05 µg/mL
- IC50 (µg/ml) with constrains [16]: 1.1 µg/mL
- IC80 (µg/ml) with constrains [16]: 4.39 µg/mL
- IC50 (µg/ml) with constrains [17]: 0.003 µg/mL
- IC50 (µg/ml) with constrains [18]: 0.011 µg/mL
- IC50 (µg/ml) with constrains [19]: 0.004 µg/mL
- IC50 (µg/ml) with constrains [20]: 0.018 µg/mL
- IC80 (µg/ml) with constrains [20]: 0.072 µg/mL
- IC50 (µg/ml) with constrains [21]: 0.001 µg/mL
- IC80 (µg/ml) with constrains [21]: 0.005 µg/mL
- IC50 (µg/ml) with constrains [22]: 0.016 µg/mL
- IC50 (µg/ml) with constrains [23]: 0.035 µg/mL
- IC50 (µg/ml) with constrains [24]: 0.021 µg/mL
- IC80 (µg/ml) with constrains [24]: 0.084 µg/mL
- IC50 (µg/ml) with constrains [25]: 0.001 µg/mL
- IC50 (µg/ml) with constrains [26]: > 100 µg/mL
- IC80 (µg/ml) with constrains [26]: > 100 µg/mL
- IC50 (µg/ml) with constrains [27]: 0.021 µg/mL
- IC80 (µg/ml) with constrains [27]: 0.083 µg/mL
- IC50 (µg/ml) with constrains [28]: 0.275 µg/mL
- IC50 (µg/ml) with constrains [29]: 73 µg/mL
- IC50 (µg/ml) with constrains [30]: 0.009 µg/mL

B2: ePGDM9 (antibody, V domains shown)
VH: QAQLVQSGPEVRKPGTSVKVSCKNPGNTLTTYDLHWVRQVPGQGLQWMGWISHEGDKKVIVERFKAKVTIDWDRSTNTAYLQLSGLTSEDTAVYYCAKGSKHRLRDYALYDEDGALNWAVDVDYLANLEFWGQGTAVTVSS
VL: DIVLTQSPLSLSVTPGESASISCKSSQSLIHGDRNNYLAWYVQKPGRSPQLLIDLASERASGVPDRFSGSGSRKDFTLKISRVETEDVGTYYCMQGRESPWTFGQGTKVDIK
- IC50 (µg/ml) with constrains [1]: 0.041 µg/mL
- IC80 (µg/ml) with constrains [1]: 0.164 µg/mL
- IC50 (µg/ml) with constrains [2]: 0.002 µg/mL
- IC80 (µg/ml) with constrains [2]: 0.009 µg/mL
- IC50 (µg/ml) with constrains [3]: 0.019 µg/mL
- IC80 (µg/ml) with constrains [3]: 0.078 µg/mL
- IC50 (µg/ml) with constrains [4]: > 100 µg/mL
- IC80 (µg/ml) with constrains [4]: > 100 µg/mL
- IC50 (µg/ml) with constrains [5]: 0.002 µg/mL
- IC80 (µg/ml) with constrains [5]: 0.007 µg/mL
- IC50 (µg/ml) with constrains [6]: > 100 µg/mL
- IC50 (µg/ml) with constrains [7]: 0.001 µg/mL
- IC80 (µg/ml) with constrains [7]: 0.003 µg/mL
- IC50 (µg/ml) with constrains [8]: 0.146 µg/mL
- IC50 (µg/ml) with constrains [9]: 0.015 µg/mL
- IC50 (µg/ml) with constrains [10]: > 100 µg/mL
- IC50 (µg/ml) with constrains [11]: 0.178 µg/mL
- IC50 (µg/ml) with constrains [12]: 0.002 µg/mL
- IC50 (µg/ml) with constrains [13]: > 100 µg/mL
- IC50 (µg/ml) with constrains [14]: 0.055 µg/mL
- IC50 (µg/ml) with constrains [15]: 0.008 µg/mL
- IC80 (µg/ml) with constrains [15]: 0.031 µg/mL
- IC50 (µg/ml) with constrains [16]: 0.958 µg/mL
- IC80 (µg/ml) with constrains [16]: 3.83 µg/mL
- IC50 (µg/ml) with constrains [17]: 0.003 µg/mL
- IC50 (µg/ml) with constrains [18]: 0.134 µg/mL
- IC50 (µg/ml) with constrains [19]: 0.002 µg/mL
- IC50 (µg/ml) with constrains [20]: 0.018 µg/mL
- IC80 (µg/ml) with constrains [20]: 0.072 µg/mL
- IC50 (µg/ml) with constrains [21]: 0.002 µg/mL
- IC80 (µg/ml) with constrains [21]: 0.006 µg/mL
- IC50 (µg/ml) with constrains [22]: 0.004 µg/mL
- IC50 (µg/ml) with constrains [23]: 0.002 µg/mL
- IC50 (µg/ml) with constrains [24]: 0.018 µg/mL
- IC80 (µg/ml) with constrains [24]: 0.073 µg/mL
- IC50 (µg/ml) with constrains [25]: 0.001 µg/mL
- IC50 (µg/ml) with constrains [26]: > 100 µg/mL
- IC80 (µg/ml) with constrains [26]: > 100 µg/mL
- IC50 (µg/ml) with constrains [27]: 0.007 µg/mL
- IC80 (µg/ml) with constrains [27]: 0.029 µg/mL
- IC50 (µg/ml) with constrains [28]: 0.074 µg/mL
- IC50 (µg/ml) with constrains [29]: 17.5 µg/mL
- IC50 (µg/ml) with constrains [30]: 0.026 µg/mL
